From publication PMC6904456 come the findings set out here.

In series [1] the target is T1, Thrombin (THR) (UniProt P00734;P00734 328-363;364-622). The series is described as follows: SPR (D-shaped plastic optical fibre, Langmuir fit); 10 uM aptamer for immobilization; Langmuir K, printed as K [nM]; Immobilization in 10 mM phosphate, 138 mM NaCl, 2.7 mM KCl, pH 7.4; sensing in binding buffer (composition and temperature not given in material).
Series [2] deals with T1, Thrombin (THR). The series is described as follows: SPR (D-shaped plastic optical fibre); 1-50 nM thrombin, no shift of resonance wavelength; Immobilization in 10 mM phosphate, 138 mM NaCl, 2.7 mM KCl, pH 7.4; sensing in binding buffer (composition and temperature not given in material).

Broadly, the Kd is the equilibrium constant for the complex coming apart. Low values mean tighter binding, high ones weaker binding.

B1: TBA29 (biotin-TBA29 thrombin aptamer) (ssDNA)
DNA: AGTCCGTGGTAGGGCAGGTTGGGGTGACT
modifications: 5' BiotinTEG
In the series with Thrombin (THR) [1], B1 displayed a dissociation constant (Kd) of 21.8 nM.

B2: non specific aptamer sequence (ssDNA)
DNA: CACCAATATTTACGTTCTACTCTCCAATA
modifications: 5' BiotinTEG
For the molecule B2, the binding result with Thrombin (THR) [2] is recorded as “no binding”.
